Numbering of substitutions follows the chain as printed.
B1: PMX237 (monospecific anti-canine CD20, canine IgG-B, lambda C5) (antibody, V domains shown)
VH: EVQLVESGGDLVKPGGSLRLSCVASGLTFSRYYMNWVRQAPGKGLQWVAYINSGGSSTDYADAVKGRFTISRDNAKNTLYLQMNSLRVEDTAVYYCASFDYWGQGTLVTVSS
VL: SYVLTQLPSKKVTLKQSAHITCGGDNIGSKSVHWYQQKLGQAPVLIIYHDSSRPTGIPERFSGANSGNTATLTISGALAEDEADYYCQVWDSSANVFGGGTHLTVLG
B2: PMX254 (monospecific anti-canine CD20, canine IgG-B, lambda C5) (antibody, V domains shown)
VH: EVQLVESGGDLVKPGGSLRLSCVASGFTFSRYHMSWIRQAPGKGLQWVAFIDSDGSGTRYADAVKGRFTFSRDNAKNTLYLQMSSLRAEDTAVYYCTSLEFWGQGTLVTVSS
VL: B1 VL with K11N, S17P, H49Y
B3: PMX268 (monospecific anti-canine CD20, canine IgG-B, lambda C5) (antibody, V domains shown)
VH: EVQLVESGGDLMKPGGSLRLSCVASGITFSGYHMSWVRQAPGKGLQWVAFINSGRKNTAYADAVKGRFTISRDNAKNTLYLQMNSLRAEDTAIYYCTTLEFWGQGTLVTVSS
VL: B1 VL with K11N, S17P, S31N, H49Y, S52R, A64V, S75N, V89M
B4: PMX270 (monospecific anti-canine CD20, canine IgG-B, lambda C5) (antibody, V domains shown)
VH: EVQLVESGGDLVKPGGSLRLSCVASGFTFSRYYMTWVRQAPGKGLQWVAYINSDRRSTTYADAVKGRFTISRDNAKNTLYLQMNSLRAEDTAVYYCTTLEYWGQGTLVTVSS
VL: B1 VL with K11N, S17P, H49Y, S52R, S75N
B5: PMX241 (monospecific anti-canine CD20, canine IgG-B, lambda C5) (antibody, V domains shown)
VH: B3 VH with M12V, K56R, N57S, A59S
VL: B1 VL with K11N, S17P, H49Y, S52R, S75N, V89M, A94V
B6: PMX269 (monospecific anti-canine CD20, canine IgG-B, lambda C5) (antibody, V domains shown)
VH: EVRLVESGGDLVKPGGSLRLSCVASGLTFNRYYMSWVRQGPGKGLQWVAYIDSGGSPTTYADTVKGRFTISRDNAKNTLYLQMNSLRVEDTAVYYCTTLEYWGQGTLVTVSS
VL: B1 VL with K11N, S17P, H49Y, S92T
B7: PMX271 (monospecific anti-canine CD20, canine IgG-B, lambda C5) (antibody, V domains shown)
VH: AVQLVESGGDLVKPGGSLRLSCVASGITFSRYHMSWVRQAPGKGLQWVAYINSGGSATSYTDAVKGRFSISRDNGKNTLYLQMNSLRVEDSAVYYCTTLDLWGQGTLVTVSS
VL: B1 VL with K11N, S17P, H49Y, S52R, S75N, V89M
B8: PMX235 (monospecific anti-canine CD20, canine IgG-B, lambda C5) (antibody, V domains shown)
VH: B4 VH with F27I, T35N, S53T, D54G, R55E, R56S, T59I, A61S
VL: B1 VL with K11N, S17P, V44A, H49Y, S51N, S52R, A94D
B9: PMX232 (monospecific anti-canine CD20, canine IgG-B, lambda C5) (antibody, V domains shown)
VH: EMQLVESGGDLVKPGESLRLSCVASGISFNNYHMSWVRQAPGKGLQWVAYIDSVGTSTTYADAVKGRFTISRDNAKNTLYLQMNSLRAEDTAVYYCTTFDSWGQGTLVTVSS
VL: B1 VL with K11N, S17P, H49Y, S52R
B10: PMX255 (monospecific anti-canine CD20, canine IgG-B, lambda C5) (antibody, V domains shown)
VH: B2 VH with T58A, S84N, F101Y
VL: B1 VL with K11N, S17P, I27V, H49Y, S52R
B11: PMX245 (monospecific anti-canine CD20, canine IgG-B, lambda C5) (antibody, V domains shown)
VH: B1 VH with Y33H, N35S, A63G, V88A, A97T, F99L, D100E, Y101D
VL: B1 VL with K11N, S17P, H49Y, A94V
B12: PMX247 (monospecific anti-canine CD20, canine IgG-B, lambda C5) (antibody, V domains shown)
VH: B1 VH with L27F, Y33H, N35S, S57P, T58S, D59S, V88A, A97T, Y101C
VL: B1 VL with K11N, S17P, H49Y, S52R
B13: PMX240 (monospecific anti-canine CD20, canine IgG-B, lambda C5) (antibody, V domains shown)
VH: B4 VH with F27L, Y33H, T35S, Y50F, D54G, R56S, S57D, L99F, E100D
VL: B1 VL with K11N, S17P, V44A, H49Y
B14: PMX238 (monospecific anti-canine CD20, canine IgG-B, lambda C5) (antibody, V domains shown)
VH: B4 VH with Y33H, T35S, Y50F, S53T, D54G, R56S, T59N, K65A, T97S, E100D
VL: B1 VL with K11N, S17P, H49Y
B15: PMX252 (monospecific anti-canine CD20, canine IgG-B, lambda C5) (antibody, V domains shown)
VH: B1 VH with L27F, Y33H, N35S, D59S, V88A, F99L
VL: B1 VL with K11N, S17P, H49Y, S92I
B16: PMX239 (monospecific anti-canine CD20, canine IgG-B, lambda C5) (antibody, V domains shown)
VH: B1 VH with L27F, Y50F, N52T, D59S, A61G, V88A, A97T
VL: B1 VL with K11N, S17P, H49Y, D50A
B17: PMX261 (monospecific anti-canine CD20, canine IgG-B, lambda C5) (antibody, V domains shown)
VH: B1 VH with L27I, N52D, S57P, D59T, N77K, T78A, V88A, A97T
VL: B1 VL with K11N, S17P, H49Y, Y86F
B18: PMX248 (monospecific anti-canine CD20, canine IgG-B, lambda C5) (antibody, V domains shown)
VH: B1 VH with L27F, Y33H, N35S, S57T, D59S, V88A, V93I, Y95F, A97T, F99L
VL: B1 VL with K11N, S17P, V44I, H49Y, S52R
B19: PMX257 (monospecific anti-canine CD20, canine IgG-B, lambda C5) (antibody, V domains shown)
VH: EVQLVESGGDLVKPGGSLRLSCVASGFTFSSYHMSWVRQAPGKGLQWVAYINSGGSSTSYADAVKGRFTISRDNAYSTLFLQMNNLRAEDTAVYYCTTLDSWGQGTLVTVSS
VL: B1 VL with K11N, S17P, H49Y
B20: PMX246 (monospecific anti-canine CD20, canine IgG-B, lambda C5) (antibody, V domains shown)
VH: B19 VH with V2M, S31R, S57P, S59N, Y76K, S77N, F80Y, N85S, L99Y, S101Q
VL: B1 VL with K11S, S17P, H49Y, S92T
B21: PMX259 (monospecific anti-canine CD20, canine IgG-B, lambda C5) (antibody, V domains shown)
VH: B1 VH with L27F, Y33H, N35S, D59S, V88A
VL: B1 VL with K11N, S17P, H49Y, S52N, A94G
B22: PMX243 (monospecific anti-canine CD20, canine IgG-B, lambda C5) (antibody, V domains shown)
VH: B1 VH with L27F, Y33H, N35S, S57N, A61T, V88A, A97S, F99L
VL: B1 VL with K11N, S17P, H49Y, S51R, S52R, S92R, A94G
B23: PMX262 (monospecific anti-canine CD20, canine IgG-B, lambda C5) (antibody, V domains shown)
VH: B1 VH with L27I, S57P, D59T, V88A, A97T
VL: B1 VL with K11N, S17P, V44I, H49Y, S51T
B24: PMX249 (monospecific anti-canine CD20, canine IgG-B, lambda C5) (antibody, V domains shown)
VH: B1 VH with L27F, Y33H, N35S, D59S, V88A
VL: B1 VL with S1P, K11N, S17P, H49Y, S52R
B25: PMX258 (monospecific anti-canine CD20, canine IgG-B, lambda C5) (antibody, V domains shown)
VH: B1 VH with S53T, D59S, V88A
VL: B1 VL with K11N, S17P, H49Y
B26: PMX267 (monospecific anti-canine CD20, canine IgG-B, lambda C5) (antibody, V domains shown)
VH: EMQLVESGGDLVKPGGSLRLSCVASGFTFSRYHMSWVRQAPGKGLQWVAYIDSDGINTNYADAVKGRFTISRDNAKNTLYLQMNSLRAEDTALYYCTTFDYWGQGTLVTVSS
VL: B1 VL with K11N, S17P, H49Y, A94G
B27: PMX266 (monospecific anti-canine CD20, canine IgG-B, lambda C5) (antibody, V domains shown)
VH: B19 VH with V2L, S31R, Y76K, S77N, F80Y, N85S, L99F
VL: B1 VL with K11N, S17P, H49Y, S92I
B28: PMX260 (monospecific anti-canine CD20, canine IgG-B, lambda C5) (antibody, V domains shown)
VH: B26 VH with M2V, S30R, D54G, I56S, N57G, N59S, L93V, T97S, T98S, F99L
VL: B1 VL with K11N, S17P, H49Y, S52R, A94G
B29: PMX242 (monospecific anti-canine CD20, canine IgG-B, lambda C5) (antibody, V domains shown)
VH: B26 VH with M2I, D52N, S53T, D54G, I56S, L93V, F99L, Y101S
VL: B1 VL with S9F, K11N, S17P, H49Y, S52R, A94V
B30: PMX253 (monospecific anti-canine CD20, canine IgG-B, lambda C5) (antibody, V domains shown)
VH: B1 VH with L4M, L27F, S56G, D59S, V88A, A97S
VL: B1 VL with K11N, S17P, H49Y
B31: PMX263 (monospecific anti-canine CD20, canine IgG-B, lambda C5) (antibody, V domains shown)
VH: B1 VH with L27F, D59S, V88A, E89D, A97T
VL: B1 VL with K11N, S17P, H49Y
B32: PMX256 (monospecific anti-canine CD20, canine IgG-B, lambda C5) (antibody, V domains shown)
VH: B19 VH with Y76K, S77N, F80Y, L81F, N85S, L99F
VL: B1 VL with K11N, S17P, H49Y
B33: PMX264 (monospecific anti-canine CD20, canine IgG-B, lambda C5) (antibody, V domains shown)
VH: B4 VH with Y33H, T35S, Y50F, S53T, D54G, R56M, T59N, T98S, E100D
VL: B1 VL with K11N, S17P, H49Y

Target: T1, canine CD20 on cells (HEK293, MDCK II, CLBL-1 or native B cells) (canine, UniProt Q3C2E2 1-297)
T1 construct: also called dCD20; cCD20
T1 chain: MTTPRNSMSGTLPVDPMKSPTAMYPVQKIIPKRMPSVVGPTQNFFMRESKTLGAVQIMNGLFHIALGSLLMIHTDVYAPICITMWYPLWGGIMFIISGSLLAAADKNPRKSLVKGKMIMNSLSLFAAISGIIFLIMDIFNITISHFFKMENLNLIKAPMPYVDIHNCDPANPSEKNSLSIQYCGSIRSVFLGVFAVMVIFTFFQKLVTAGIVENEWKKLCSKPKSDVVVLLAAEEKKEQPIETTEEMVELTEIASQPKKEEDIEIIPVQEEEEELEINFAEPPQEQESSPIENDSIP
Experiment: flow cytometry, canine CD20 HEK293 cells, 10 µg/ml, FITC anti-canine IgG
Procedure: A CD20 binding screen was performed on candidate proteins produced from the canine CD20 immunisation as described in Examples 2 and 3. CHO cells supernatants containing candidate antibodies were diluted to 10 μg/ml in FACS buffer (PBS containing 3% FBS) and screened for their ability to bind canine CD20 expressed on cell surface. In brief, 1-2×10⁵ canine CD20-expressing HEK cells were incubated with candidate mAbs for one hour at 4° C., at a fixed concentration of 10 μg/ml followed by incubation with 5 μg/ml of FITC-conjugated anti-canine IgG secondary antibody (Bethyl Laboratories) for 1 hour at 4° C. Cells incubated with anti-canine IgG FITC secondary antibody and without primary anti-canine CD20 antibody, or with isotype control primary antibody, were used as negative controls. The data were acquired on either a Beckman Coulter CytoFLEX or a BD Accuri C6 Plus flow cytometer and analysed using FlowJo software.

Binding result, binds:
B1, B2, B3, B4, B5, B6, B7, B8, B9, B10, B11, B12, B13, B14, B15, B16, B17, B18, B19, B20, B21, B22, B23, B24, B25, B26, B27, B28, B29, B30, B31, B32, B33
